Where two headings read alike, the source gives them in different places.
Assays:
Assay in all cases: cell-based or functional assay
[1] = molecular target: spike (SARS-CoV-2, D614G) (SARS-CoV-2) (UniProt P0DTC2)
[2] = molecular target: spike (SARS-CoV-2, BA.1.1 P1162S) (SARS-CoV-2)
[3] = molecular target: spike (SARS-CoV-2, D614G) (SARS-CoV-2) (UniProt P0DTC2); remark: listed apart in the source
[4] = molecular target: spike (SARS-CoV-2, BA.5.8 P1162L) (SARS-CoV-2)
[5] = molecular target: spike (SARS-CoV-2, D614G) (SARS-CoV-2) (UniProt P0DTC2); remark: listed apart in the source
[6] = molecular target: spike (SARS-CoV-2, D614G) (SARS-CoV-2) (UniProt P0DTC2); remark: listed apart in the source
[7] = molecular target: spike (SARS-CoV-2, D614G) (SARS-CoV-2) (UniProt P0DTC2); remark: listed apart in the source
[8] = molecular target: SARS-CoV-2 Omicron BA.4/5+K444T Spike on pseudovirus (SARS-CoV-2)

Question: What does the source list for bebtelovimab (antibody)?
Answer: Emax, pseudovirus neutralization, Vero E6, with isotype (% neutralization) [1]: 99.7; EC50, pseudovirus neutralization [2]: 0.12 ng/mL; EC80, pseudovirus neutralization [2]: 1.4 ng/mL; EC90, pseudovirus neutralization [2]: 6 ng/mL; Emax, pseudovirus neutralization (% neutralization) [2]: 100; EC50, pseudovirus neutralization [3]: 0.57 ng/mL; EC50, pseudovirus neutralization, TMPRSS2-Vero E6, with isotype [3]: 1.7 ng/mL; EC50, pseudovirus neutralization, Vero E6, with isotype [3]: 0.64 ng/mL; EC80, pseudovirus neutralization [3]: 4.9 ng/mL; EC80, pseudovirus neutralization, TMPRSS2-Vero E6, with isotype [3]: 11 ng/mL; EC80, pseudovirus neutralization, Vero E6, with isotype [3]: 2.7 ng/mL; EC90, pseudovirus neutralization [3]: 18 ng/mL; EC90, pseudovirus neutralization, TMPRSS2-Vero E6, with isotype [3]: 32 ng/mL; EC90, pseudovirus neutralization, Vero E6, with isotype [3]: 6.1 ng/mL; Emax, pseudovirus neutralization (% neutralization) [3]: 99.9; Emax, pseudovirus neutralization, TMPRSS2-Vero E6, with isotype (% neutralization) [3]: 99.4; Emax, pseudovirus neutralization, Vero E6, with isotype (% neutralization) [3]: 99.4; EC50, pseudovirus neutralization [4]: 0.13 ng/mL; EC80, pseudovirus neutralization [4]: 1.1 ng/mL; EC90, pseudovirus neutralization [4]: 3.7 ng/mL; Emax, pseudovirus neutralization (% neutralization) [4]: 99.9; EC50, pseudovirus neutralization, Vero E6, with isotype [5]: 0.29 ng/mL; EC90, pseudovirus neutralization, Vero E6, with isotype [6]: 11 ng/mL; EC80, pseudovirus neutralization, Vero E6, with isotype [7]: 2.9 ng/mL

Question: sotrovimab VH/VL-hamIgG2a (antibody) was tested. Which EC50, pseudovirus neutralization, Vero E6 [3] did it give?
Answer: 8.51 ng/mL

Question: With sotrovimab VH/VL-huIgG1 (antibody) as the substance, how does the EC50, pseudovirus neutralization, Vero E6 [3] read?
Answer: 27.9 ng/mL

Question: Bebtelovimab (antibody) was tested. Which Neutralization - IC50, pseudovirus [8] did it give?
Answer: 1220 ng/mL

Question: What does the source list for sotrovimab VH/VL-huIgG1-LS (antibody)?
Answer: Emax, pseudovirus neutralization, Vero E6, with isotype (% neutralization) [1]: 98.3; EC50, pseudovirus neutralization, Vero E6 [3]: 35.2 ng/mL; EC50, pseudovirus neutralization, Vero E6, with isotype [5]: 14 ng/mL; EC90, pseudovirus neutralization, Vero E6, with isotype [6]: 170 ng/mL; EC80, pseudovirus neutralization, Vero E6, with isotype [7]: 69 ng/mL

Question: Which Neutralization - IC50, pseudovirus [8] does the source give for “Sotrovimab VH/VL (human IgG1 molecule expressing the same variable regions of Sotrovimab) (antibody)” here?
Answer: 304 ng/mL

— patent publication US20230357367A1
